In the RNAGym collection of RNA variant scans (doi:10.1093/nar/gkz1192):

B1: CPEB3 Ribozyme (parent)
chain: UAACAGGGGGCCACAGCAGAAGCGUUCACGUCGCAGCCCCUGUCAGAUUCUGGUGAAUCUGCGAAUUCUGCUGUAUAUCUC

Variants of: B1
Assay: self-cleavage, relative activity (ratio to wild type); higher = more cleavage; in vitro, sequencing
Summary of the method: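 Barcoded CPEB3 ribozyme mutants, produced by rounds of error-prone PCR, self-cleaved while being transcribed with T7 RNA polymerase for 5 hours at 37°C and during a subsequent 15 min DNase I step before EDTA was added. Sequencing of template-switched cDNA on Illumina gave cleaved and total reads, and DNA sequencing assigned barcodes to variants. Each variant's relative activity is its cleaved/total read fraction divided by the unmutated ribozyme's fraction, averaged across three batches. A variant needed a minimum of 5 reads.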

| Variant | self-cleavage |
| --- | --- |
| G8A C40A | 0.16 |
| G8A C40U | 0.14 |
| G7U U66C | 0.17 |
| G7U U69C | 0.19 |
| G7U U69A | 0.2 |
| G7U U54C | 0.24 |
| G7U G55A | 0.08 |
| G7U A21U | 0.34 |
| G7U A21G | 0.31 |
| G7U U31C | 0.15 |
| G7U U31A | 0.07 |
| G7C G61C | 0.1 |
| G7U C79A | 0.28 |
| G7U A65G | 0.4 |
| G8A A65G | 0.14 |
| G8A A65U | 0.06 |
| G8A A75U | 0.24 |
| G8A A75G | 0.21 |
| G7U U67C | 0.25 |
| G7U C32U | 0.07 |
| G7U U78C | 0.13 |
| G7U U78A | 0.48 |
| G8A C68A | 0.2 |
| G7C A64G | 0.35 |

| Variant | self-cleavage |
| --- | --- |
| G8A C39A | 0.21 |
| G8A C39G | 0.06 |
| G7C U72C | 0.37 |
| G7C U72G | 0.27 |
| G7C C32U | 0.12 |
| G7C U67C | 0.19 |
| G8A A35U | 0.14 |
| G8A A35C | 0.21 |
| G8A A35G | 0.5 |
| G7C U41C | 0.2 |
| G7U G36C | 0.14 |
| G7C U51C | 0.28 |
| G8A A77C | 0.09 |
| G8A A77G | 0.23 |
| G8A A77U | 0.18 |
| G8A A64G | 0.22 |
| G8A A64U | 0.27 |
| G7C U48C | 0.4 |
| G7C C50A | 0.29 |
| G7U U49C | 0.11 |
| G8A A20G | 0.25 |
| G8A A20U | 0.22 |
| G8A C32A | 0.2 |
| G7C A65G | 0.22 |

| Variant | self-cleavage |
| --- | --- |
| G7U | 0.25 |
| G8A | 0.27 |
| G7U G30A | 0.16 |
| G7U A18G | 0.19 |
| G7U A64U | 0.13 |
| G7U A64G | 0.14 |
| G7U A64C | 0.13 |
| G7U A15U | 0.23 |
| G7U A15G | 0.27 |
| G7U G73U | 0.23 |
| G7C C37U | 0.24 |
| G8A A28G | 0.23 |
| G8A A28U | 0.14 |
| G7U C29U | 0.09 |
| G8A C29U | 0.24 |
| G7C U69C | 0.2 |
| G7U A20U | 0.11 |
| G7U A20G | 0.27 |
| G8A C12G | 0.09 |
| G7U G24A | 0.22 |
| G7U U60C | 0.1 |
| G7C U66C | 0.5 |
| G7C G30U | 0.14 |
| G7U U51A | 0.21 |

| Variant | self-cleavage |
| --- | --- |
| G7U U51C | 0.28 |
| G7U U51G | 0.2 |
| G7U U58C | 0.2 |
| G7U U58A | 0.25 |
| G7C U60C | 0.2 |
| G8A A21G | 0.28 |
| G7U U72G | 0.07 |
| G7U U72C | 0.25 |
| G8A A56U | 0.38 |
| G8A A56C | 0.24 |
| G8A A56G | 0.24 |
| G7U A45U | 0.14 |
| G7U A45G | 0.22 |
| G7U A45C | 0.2 |
| G7C U26C | 0.35 |
| G8A C50U | 0.12 |
| G8A C34U | 0.39 |
| G7C A75U | 0.31 |
| G7U U80C | 0.27 |
| G8A C38U | 0.08 |
| G7C G9A | 0.23 |
| G7C G9U | 0.36 |
| G7C U80A | 0.37 |
| G7C U80C | 0.27 |

| Variant | self-cleavage |
| --- | --- |
| G8A C17U | 0.25 |
| G7C U49A | 0.26 |
| G7U U74C | 0.46 |
| G7U U74A | 0.22 |
| G7C U43A | 0.24 |
| G7C U43C | 0.36 |
| G7U A75G | 0.2 |
| G7U A75U | 0.13 |
| G7U C50A | 0.06 |
| G7U C34U | 0.07 |
| G8A C14G | 0.38 |
| G8A C14U | 0.08 |
| G8A C71A | 0.17 |
| G8A C71U | 0.21 |
| G7U G63A | 0.33 |
| G7U A57G | 0.19 |
| G8A A57U | 0.11 |
| G8A A57G | 0.26 |
| G7U U41C | 0.21 |
| G7U A13U | 0.34 |
| G7U A13G | 0.18 |
| G8A A15G | 0.3 |
| G8A A15C | 0.31 |
| G8A A15U | 0.16 |

| Variant | self-cleavage |
| --- | --- |
| G7U A35U | 0.38 |
| G7U A35G | 0.14 |
| G8A A18G | 0.21 |
| G8A A18U | 0.07 |
| G7C A57U | 0.19 |
| G8A C44A | 0.26 |
| G8A C44U | 0.08 |
| G8A C37A | 0.15 |
| G8A C37U | 0.05 |
| G7U C37G | 0.53 |
| G7U C37A | 0.17 |
| G7C U31A | 0.25 |
| G7C U31C | 0.41 |
| G8A C27U | 0.08 |
| G7U G42U | 0.14 |
| G8A C62U | 0.22 |
| G8A C62A | 0.07 |
| G7U U25A | 0.15 |
| G7U U25C | 0.2 |
| G8A A45G | 0.29 |
| G8A A45U | 0.06 |
| G7C U25C | 0.27 |
| G7C U25A | 0.27 |
| G7U C17U | 0.2 |

| Variant | self-cleavage |
| --- | --- |
| G8A C59A | 0.06 |
| G7C U54C | 0.34 |
| G7C U54A | 0.22 |
| G7U C39U | 0.19 |
| G7U U43A | 0.09 |
| G7U U43C | 0.38 |
| G7U U26C | 0.15 |
| G7U U26A | 0.21 |
| G7U G33A | 0.11 |
| G8A A13G | 0.44 |
| G8A A13U | 0.3 |
| G7U A56U | 0.16 |
| G7U A56G | 0.23 |
| G7U C62U | 0.21 |
| G7U C62G | 0.17 |
| G8A C23A | 0.06 |
| G8A C23U | 0.07 |
| G7C G24C | 0.15 |
| G7U A47C | 0.37 |
| G7U A47G | 0.29 |
| G7U U48A | 0.07 |
| G8A A47G | 0.23 |
| G8A A47U | 0.2 |
